B1: GTGCAC_site9756 (dsDNA)
DNA 1: TACTTATTTAAAATAGTGCATGAATAGAAGATATAT
DNA 2: ATATATCTTCTATTCATGCACTATTTTAAATAAGTA
B2: GTGCAC_site10402 (dsDNA)
DNA 1: TTACACATGTATTTGGTGCATGTTGTTAACAAAATA
DNA 2: TATTTTGTTAACAACATGCACCAAATACATGTGTAA
B3: GTGCAC_site9816 (dsDNA)
DNA 1: AAGACATTTTTTAAGGTGCTTTGGAAAAAGGAGTAT
DNA 2: ATACTCCTTTTTCCAAAGCACCTTAAAAAATGTCTT
B4: GTGCAC_site10708 (dsDNA)
DNA 1: TTCTAAAATTATATAGTGCAATTATATTAATTTTTC
DNA 2: GAAAAATTAATATAATTGCACTATATAATTTTAGAA
B5: GTGCAC_site10715 (dsDNA)
DNA 1: TTTTTGTAACCGATTCTGCACTGAGAAGCACATATA
DNA 2: TATATGTGCTTCTCAGTGCAGAATCGGTTACAAAAA
B6: GTGCAC_site9560 (dsDNA)
DNA 1: ATACATCGTATATAAGTGCATATTAAGGTCTTAAGA
DNA 2: TCTTAAGACCTTAATATGCACTTATATACGATGTAT
B7: GTGCAC_site9771 (dsDNA)
DNA 1: GTACGTTTCTCCAGACTGCACTATACGACTCGTACA
DNA 2: TGTACGAGTCGTATAGTGCAGTCTGGAGAAACGTAC
B8: GTGCAC_site10283 (dsDNA)
DNA 1: AAAATAATTTTATAAGTGCAAAATAGCTTATTTATA
DNA 2: TATAAATAAGCTATTTTGCACTTATAAAATTATTTT
B9: GTGCAC_site10046 (dsDNA)
DNA 1: TTTTTGTTATATAAAGTGCAGTGACAAGCAGTTTAA
DNA 2: TTAAACTGCTTGTCACTGCACTTTATATAACAAAAA
B10: GTGCAC_site10541 (dsDNA)
DNA 1: TTCAAATAAATAGTAGTGCATATTTATTAATGTAAA
DNA 2: TTTACATTAATAAATATGCACTACTATTTATTTGAA
B11: GTGCAC_site10493 (dsDNA)
DNA 1: AAAGGATTTATACTAGTGCAAAAATATAAAAATATA
DNA 2: TATATTTTTATATTTTTGCACTAGTATAAATCCTTT
B12: GTGCAC_site10457 (dsDNA)
DNA 1: TACAATATATTTATAGTGCATATTACTTTTAACTTT
DNA 2: AAAGTTAAAAGTAATATGCACTATAAATATATTGTA
B13: GTGCAC_site9599 (dsDNA)
DNA 1: TTATATGTATATATAGTGCAGAACAAAAGATTATAT
DNA 2: ATATAATCTTTTGTTCTGCACTATATATACATATAA
B14: GTGCAC_site10554 (dsDNA)
DNA 1: TATATATATATATGAGTGCATATGTGTAATATAAAA
DNA 2: TTTTATATTACACATATGCACTCATATATATATATA
B15: GTGCAC_site10208 (dsDNA)
DNA 1: TTTTGTTATTAGAGGGTGCTTATAATGAACTCCTAC
DNA 2: GTAGGAGTTCATTATAAGCACCCTCTAATAACAAAA
B16: GTGCAC_site9973 (dsDNA)
DNA 1: AATTAAAAGTGAAGAGTGCATAGAATTTTTTACTTT
DNA 2: AAAGTAAAAAATTCTATGCACTCTTCACTTTTAATT
B17: GTGCAC_site10627 (dsDNA)
DNA 1: TTAAGATACAAAAAAGTGCATATTTTTTAACAAAAA
DNA 2: TTTTTGTTAAAAAATATGCACTTTTTTGTATCTTAA
B18: GTGCAC_site10475 (dsDNA)
DNA 1: TAATGTTCCTATATAGTGCAATTATGTTTTATTTCT
DNA 2: AGAAATAAAACATAATTGCACTATATAGGAACATTA

Molecular target: AP2-I D3 (Plasmodium falciparum, UniProt Q8IJW6 910-1027)
Experiment: gcPBM; about 25 ug protein; PBS, 1% milk, 0.2 mg/ml BSA, salmon testes DNA, 0.03% Triton X-100
Conditions: tags: N-terminal GST (pGEX-4T-1), kept; label: surface-attached array probe

Binder | binding signal
B1 | 9.47 ln median PBM intensity, better of two orientations
B2 | 9.49 ln median PBM intensity, better of two orientations
B3 | 9.5 ln median PBM intensity, better of two orientations
B4 | 9.54 ln median PBM intensity, better of two orientations
B5 | 9.57 ln median PBM intensity, better of two orientations
B6 | 9.59 ln median PBM intensity, better of two orientations
B7 | 9.61 ln median PBM intensity, better of two orientations
B8 | 9.62 ln median PBM intensity, better of two orientations
B9 | 9.65 ln median PBM intensity, better of two orientations
B10 | 9.69 ln median PBM intensity, better of two orientations
B11 | 9.74 ln median PBM intensity, better of two orientations
B12 | 9.8 ln median PBM intensity, better of two orientations
B13 | 9.82 ln median PBM intensity, better of two orientations
B14 | 9.85 ln median PBM intensity, better of two orientations
B15 | 9.87 ln median PBM intensity, better of two orientations
B16 | 9.92 ln median PBM intensity, better of two orientations
B17 | 9.96 ln median PBM intensity, better of two orientations
B18 | 9.98 ln median PBM intensity, better of two orientations

Source: article PMC11417369, “DNA sequence and chromatin differentiate sequence-specific transcription factor binding in the human malaria parasite Plasmodium falciparum”
